Laboratory results: paper PMC8537947, “Improved Radiolytic Stability of a ^68Ga-labelled Collagelin Analogue for the Imaging of Fibrosis” (Pharmaceuticals, 2021)
Bridge positions count the residues as written; N and C are the ends. Square brackets hold non-standard residues; d marks the D form. Peptide text beside a SMILES is read from it. * marks the point of attachment. NOTA = O=C(O)CN1CCN(CC(=O)O)CCN(CC(=O)*)CC1; Nle = CCCC[C@H](N)C(=O)O; AEEA = NCCOCCOCC(=O)O

Experiment: in vivo
Parameters: species or system Sprague-Dawley rats
Details: rat; for SUV at 2 h / SUV at 5 min / SUV at 10 min / SUV at 40 min / SUV at 1 h / SUV at 0.5 h: Sprague-Dawley, iv, total radioactivity
Description: Sixteen male (n = 10; 363.3 ± 19.6 g) and female (n = 6; 199.2 ± 5.5 g) Sprague–Dawley rats were used for ex vivo organ distribution of the [^68Ga]Ga-NO2A-[Nle13]-Col for the subsequent extrapolation and calculation of human dosimetry. The male and female animals were administered into the tail vein with, respectively, 2.3 ± 0.8 MBq and 1.4 ± 0.5 MBq, sacrificed at 5, 10, 30, 40, 60, and 120 min post administration, and the organs were harvested, weighted, and measured for their radioactivity content. Samples from the blood, heart, lung, liver, spleen, adrenal glands, kidneys, intestines with or without contents, muscle, testis, bone, brain, pancreas, urine bladder, and bone marrow were collected. To monitor radioactivity elimination and recovery, the radioactivity of the remaining carcass was also measured. The radioactivity measurements were corrected for decay and converted into standardized uptake values (SUVs, Table S2) according to Equation (2), wherein the radioactivity is expressed in MBq and the weight in grams:(2) SUV=Radioactivityorgan∗weightrat/Radioactivityinjected∗weightorgan

[1] = male, SUV large intestine without content (INL-)
[2] = male, SUV small intestine with its content (INS+)

SMILES: CCCC[C@@H]1NC(=O)[C@H](C(C)C)NC(=O)[C@H](CCCNC(=N)N)NC(=O)CNC(=O)[C@@H]2CCCN2C(=O)[C@@H](NC(=O)COCCOCCNC(=O)CN2CCN(CC(=O)O)CCN(CC(=O)O)CC2)CSSC[C@@H](C(=O)O)NC(=O)[C@@H]2CCCN2C(=O)CNC(=O)[C@H](CCC(=O)O)NC(=O)[C@H](CC(=O)O)NC(=O)[C@H](CC(=O)O)NC(=O)CNC(=O)[C@H](CC(C)C)NC(=O)[C@H](Cc2c[nH]cn2)NC(=O)[C@H](CC(C)C)NC(=O)CNC(=O)[C@H](Cc2c[nH]cn2)NC1=O [[^68Ga]Ga-NO2A-[Nle^13]-Col, [^68Ga]Ga-NOTA-PEG2-c[CPGRVNleHGLHLGDDEGPC], metal not drawn] ({NOTA-AEEA}-CPGRV[Nle]HGLHLGDDEGPC-OH; disulfide 1-18)
- SUV at 2 h (female, SUV spleen (SP)): 0.066 SUV
- SUV at 5 min (male, 2.3 MBq, SUV blood (BL)): 2.22 SUV
- SUV at 10 min (male, 2.3 MBq, SUV blood (BL)): 1.53 SUV
- SUV at 40 min (male, 2.3 MBq, SUV heart (HE)): 0.225 SUV
- SUV at 1 h (male, 2.3 MBq, SUV heart (HE)): 0.123 SUV
- SUV at 2 h (male, 2.3 MBq, SUV heart (HE)): 0.024 SUV
- SUV at 5 min (male, 2.3 MBq, SUV liver (LI)): 0.478 SUV
- SUV at 10 min (male, 2.3 MBq, SUV liver (LI)): 0.308 SUV
- SUV at 0.5 h (male, 2.3 MBq, SUV liver (LI)): 0.193 SUV
- SUV at 40 min (male, 2.3 MBq, SUV liver (LI)): 0.198 SUV
- SUV at 1 h (male, 2.3 MBq, SUV liver (LI)): 0.112 SUV
- SUV at 2 h (male, 2.3 MBq, SUV liver (LI)): 0.0624 SUV
- SUV at 1 h (male, 2.3 MBq, SUV lungs (LU)): 0.217 SUV
- SUV at 2 h (male, 2.3 MBq, SUV lungs (LU)): 0.0955 SUV
- SUV at 5 min (male, SUV TE (testis)): 0.354 SUV
- SUV at 10 min (male, SUV TE (testis)): 0.318 SUV
- SUV at 0.5 h (male, SUV TE (testis)): 0.216 SUV
- SUV at 40 min (male, SUV TE (testis)): 0.245 SUV
- SUV at 1 h (male, SUV TE (testis)): 0.118 SUV
- SUV at 2 h (male, SUV TE (testis)): 0.0322 SUV
- SUV at 5 min (male, SUV adrenals (AD)): 0.82 SUV
- SUV at 10 min (male, SUV adrenals (AD)): 0.549 SUV
- SUV at 0.5 h (male, SUV adrenals (AD)): 0.464 SUV
- SUV at 40 min (male, SUV adrenals (AD)): 0.284 SUV
- SUV at 1 h (male, SUV adrenals (AD)): 0.494 SUV
- SUV at 2 h (male, SUV adrenals (AD)): 0.249 SUV
- SUV at 5 min (male, SUV bladder (UB)): 2.51 SUV
- SUV at 10 min (male, SUV bladder (UB)): 3.13 SUV
- SUV at 0.5 h (male, SUV bladder (UB)): 5.01 SUV
- SUV at 40 min (male, SUV bladder (UB)): 2.8 SUV
- SUV at 1 h (male, SUV bladder (UB)): 3.73 SUV
- SUV at 2 h (male, SUV bladder (UB)): 0.896 SUV
- SUV at 0.5 h (male, SUV blood (BL)): 0.8 SUV
- SUV at 40 min (male, SUV blood (BL)): 0.624 SUV
- SUV at 1 h (male, SUV blood (BL)): 0.316 SUV
- SUV at 2 h (male, SUV blood (BL)): 0.052 SUV
- SUV at 5 min (male, SUV bone (BO)): 0.12 SUV
- SUV at 10 min (male, SUV bone (BO)): 0.243 SUV
- SUV at 0.5 h (male, SUV bone (BO)): 0.143 SUV
- SUV at 40 min (male, SUV bone (BO)): 0.127 SUV
- SUV at 1 h (male, SUV bone (BO)): 0.2 SUV
- SUV at 2 h (male, SUV bone (BO)): 0.0384 SUV
- SUV at 5 min (male, SUV brain (BR)): 0.0955 SUV
- SUV at 10 min (male, SUV brain (BR)): 0.0507 SUV
- SUV at 0.5 h (male, SUV brain (BR)): 0.0346 SUV
- SUV at 40 min (male, SUV brain (BR)): 0.0272 SUV
- SUV at 1 h (male, SUV brain (BR)): 0.0268 SUV
- SUV at 2 h (male, SUV brain (BR)): 0.0058 SUV
- SUV at 5 min (male, SUV heart (HE)): 0.97 SUV
- SUV at 10 min (male, SUV heart (HE)): 0.605 SUV
- SUV at 0.5 h (male, SUV heart (HE)): 0.338 SUV
- SUV at 5 min (male, SUV kidneys (KI)): 19.2 SUV
- SUV at 10 min (male, SUV kidneys (KI)): 14.2 SUV
- SUV at 0.5 h (male, SUV kidneys (KI)): 13.6 SUV
- SUV at 40 min (male, SUV kidneys (KI)): 13.1 SUV
- SUV at 1 h (male, SUV kidneys (KI)): 8.67 SUV
- SUV at 2 h (male, SUV kidneys (KI)): 11.5 SUV
- SUV at 5 min [1]: 1.01 SUV
- SUV at 10 min [1]: 0.919 SUV
- SUV at 0.5 h [1]: 0.476 SUV
- SUV at 40 min [1]: 0.289 SUV
- SUV at 1 h [1]: 0.243 SUV
- SUV at 2 h [1]: 0.0668 SUV
- SUV at 5 min (male, SUV lungs (LU)): 1.28 SUV
- SUV at 10 min (male, SUV lungs (LU)): 1 SUV
- SUV at 0.5 h (male, SUV lungs (LU)): 0.566 SUV
- SUV at 40 min (male, SUV lungs (LU)): 0.563 SUV
- SUV at 5 min (male, SUV muscle (MU)): 0.401 SUV
- SUV at 10 min (male, SUV muscle (MU)): 0.507 SUV
- SUV at 0.5 h (male, SUV muscle (MU)): 0.116 SUV
- SUV at 40 min (male, SUV muscle (MU)): 0.104 SUV
- SUV at 1 h (male, SUV muscle (MU)): 0.106 SUV
- SUV at 2 h (male, SUV muscle (MU)): 0.0164 SUV
- SUV at 5 min (male, SUV pancreas (PA)): 0.472 SUV
- SUV at 10 min (male, SUV pancreas (PA)): 0.419 SUV
- SUV at 0.5 h (male, SUV pancreas (PA)): 0.261 SUV
- SUV at 40 min (male, SUV pancreas (PA)): 0.2 SUV
- SUV at 1 h (male, SUV pancreas (PA)): 0.111 SUV
- SUV at 2 h (male, SUV pancreas (PA)): 0.0272 SUV
- SUV at 5 min (male, SUV red bone marrow (BM)): 0.584 SUV
- SUV at 10 min (male, SUV red bone marrow (BM)): 0.543 SUV
- SUV at 0.5 h (male, SUV red bone marrow (BM)): 0.262 SUV
- SUV at 40 min (male, SUV red bone marrow (BM)): 1.01 SUV
- SUV at 1 h (male, SUV red bone marrow (BM)): 1.15 SUV
- SUV at 2 h (male, SUV red bone marrow (BM)): 0.154 SUV
- SUV at 5 min [2]: 0.731 SUV
- SUV at 10 min [2]: 0.5 SUV
- SUV at 0.5 h [2]: 0.256 SUV
- SUV at 40 min [2]: 0.412 SUV
- SUV at 1 h [2]: 0.132 SUV
- SUV at 2 h [2]: 0.0313 SUV
- SUV at 5 min (male, SUV spleen (SP)): 0.541 SUV
- SUV at 10 min (male, SUV spleen (SP)): 0.376 SUV
- SUV at 0.5 h (male, SUV spleen (SP)): 0.241 SUV
- SUV at 40 min (male, SUV spleen (SP)): 0.205 SUV
- SUV at 1 h (male, SUV spleen (SP)): 0.126 SUV
- SUV at 2 h (male, SUV spleen (SP)): 0.0652 SUV
- decrease of kidney SUV: 40-50%
- highest SUV (kidneys): around 12 SUV
